Numbering of substitutions follows the chain as printed. Each block holds one molecule with its values, some of them ahead of it.
How the values were obtained:
[1] = biological target: (H3-H4)2 tetramer (fluorescently labeled with Alexa Fluor 488 on H4 at E63C) (human) (UniProt P68431); assay: fluorescence polarisation; 5 nM Alexa Fluor 488-labeled H2A-H2B dimer or (H3-H4)2 tetramer, SMARCAD1 titrated 0-2500 nM; 2 mM DTT, 10% glycerol, 50 mM HEPES pH 7.5, 0.01% CHAPS, 0.01% NP-40, 300 mM KCl; room temperature, 30 min; hyperbolic fit
[2] = biological target: nucleosome: histone octamer with Alexa Fluor 488 on histone H4 E63C assembled onto a 165 bp DNA (human) (UniProt P04908)
[3] = biological target: T1, Δ350 SMARCAD1, dephosphorylated V974A;del1-350 (human) (UniProt Q9H4L7); assay: fluorescence polarization; conditions: FP: 50 mM HEPES pH 7.5, 2 mM DTT, 10% glycerol, 0.01% CHAPS, 0.01% NP-40, no added salt stated, room temperature 30 min; 10 nM nucleosome or DNA, 0-5 uM …
T1 sequence: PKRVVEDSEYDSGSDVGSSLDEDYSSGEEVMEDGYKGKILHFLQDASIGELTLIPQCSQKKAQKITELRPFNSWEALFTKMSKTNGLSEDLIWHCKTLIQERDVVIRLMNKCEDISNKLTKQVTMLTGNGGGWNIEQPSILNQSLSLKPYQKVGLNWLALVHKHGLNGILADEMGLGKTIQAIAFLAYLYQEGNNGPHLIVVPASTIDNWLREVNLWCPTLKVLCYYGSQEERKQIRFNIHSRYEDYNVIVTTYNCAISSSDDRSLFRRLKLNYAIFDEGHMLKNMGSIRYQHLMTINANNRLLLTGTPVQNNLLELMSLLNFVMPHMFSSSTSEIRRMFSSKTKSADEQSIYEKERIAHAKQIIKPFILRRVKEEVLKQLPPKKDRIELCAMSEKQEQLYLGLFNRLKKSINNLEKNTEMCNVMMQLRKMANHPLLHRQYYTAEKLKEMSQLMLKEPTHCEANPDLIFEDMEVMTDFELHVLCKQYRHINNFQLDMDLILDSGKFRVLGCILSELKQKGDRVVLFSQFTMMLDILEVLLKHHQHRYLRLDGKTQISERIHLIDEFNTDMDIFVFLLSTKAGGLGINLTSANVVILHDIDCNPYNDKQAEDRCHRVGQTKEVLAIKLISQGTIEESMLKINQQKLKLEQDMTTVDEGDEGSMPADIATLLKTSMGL

[4] = biological target: T2, 23A SMARCAD1, phosphorylated (human) (UniProt Q9H4L7); assay: fluorescence polarization; conditions: FP: 50 mM HEPES pH 7.5, 2 mM DTT, 10% glycerol, 0.01% CHAPS, 0.01% NP-40, no added salt stated, room temperature 30 min, 10 nM nucleosome or DNA, 0-5 uM …
T2 sequence: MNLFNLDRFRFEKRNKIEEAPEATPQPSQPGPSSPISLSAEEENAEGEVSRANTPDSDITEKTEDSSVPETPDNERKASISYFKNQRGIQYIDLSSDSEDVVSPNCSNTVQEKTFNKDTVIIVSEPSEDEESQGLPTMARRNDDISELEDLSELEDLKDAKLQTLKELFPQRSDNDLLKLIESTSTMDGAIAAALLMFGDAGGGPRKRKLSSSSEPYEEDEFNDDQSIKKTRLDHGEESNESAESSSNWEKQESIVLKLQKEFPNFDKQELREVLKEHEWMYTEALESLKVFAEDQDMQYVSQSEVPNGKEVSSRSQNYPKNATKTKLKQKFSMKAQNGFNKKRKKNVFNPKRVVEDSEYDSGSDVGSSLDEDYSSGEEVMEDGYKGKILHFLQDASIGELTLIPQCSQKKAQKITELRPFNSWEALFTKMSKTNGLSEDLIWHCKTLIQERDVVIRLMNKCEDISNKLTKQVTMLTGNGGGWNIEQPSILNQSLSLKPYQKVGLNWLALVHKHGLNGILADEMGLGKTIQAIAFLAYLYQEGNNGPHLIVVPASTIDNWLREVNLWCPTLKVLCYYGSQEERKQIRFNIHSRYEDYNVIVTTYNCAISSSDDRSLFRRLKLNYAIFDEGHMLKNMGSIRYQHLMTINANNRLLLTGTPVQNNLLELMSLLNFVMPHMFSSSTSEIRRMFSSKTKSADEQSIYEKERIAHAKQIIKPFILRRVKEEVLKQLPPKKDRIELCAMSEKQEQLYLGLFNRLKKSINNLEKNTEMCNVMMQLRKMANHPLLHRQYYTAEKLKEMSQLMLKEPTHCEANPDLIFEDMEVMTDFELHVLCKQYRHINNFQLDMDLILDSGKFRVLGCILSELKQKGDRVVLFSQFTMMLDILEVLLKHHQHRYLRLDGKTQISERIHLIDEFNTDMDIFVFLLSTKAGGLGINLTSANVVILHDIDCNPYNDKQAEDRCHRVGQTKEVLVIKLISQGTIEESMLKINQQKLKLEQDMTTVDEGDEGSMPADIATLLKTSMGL

[5] = biological target: T3, 23A SMARCAD1, dephosphorylated (human) (UniProt Q9H4L7); assay: fluorescence polarization; conditions: FP: 50 mM HEPES pH 7.5, 2 mM DTT, 10% glycerol, 0.01% CHAPS, 0.01% NP-40, no added salt stated, room temperature 30 min, 10 nM nucleosome or DNA, 0-5 uM …
T3 sequence: T2 sequence

[6] = biological target: nucleosome: histone octamer with Alexa Fluor 488 on histone H4 E63C assembled onto a 165 bp DNA (human) (UniProt P04908); assay: fluorescence polarisation; 10 nM Alexa Fluor 488-labeled nucleosome (165 bp DNA), SMARCAD1 titrated 0-5 μM; 2 mM DTT, 10% glycerol, 50 mM HEPES pH 7.5, 0.01% CHAPS, 0.01% NP-40; room temperature, 30 min; hyperbolic fit
[7] = biological target: T4, Δ350 SMARCAD1, dephosphorylated (human, UniProt Q9H4L7 351-1026, V974A;del1-350); assay: fluorescence polarization; dephosphorylated (CIP); FP: 50 mM HEPES pH 7.5, 2 mM DTT, 10% glycerol, 0.01% CHAPS, 0.01% NP-40, no added salt stated, room temperature 30 min; 10 nM nucleosome or DNA, 0-5 uM SMARCAD1; conditions: protein: recombinant; tags: 6xHis; label: Alexa Fluor 488 and Alexa Fluor 647 (labeled PCR primers); blunt
T4 sequence: T1 sequence

[8] = biological target: T5, WT SMARCAD1, dephosphorylated (human, UniProt Q9H4L7 1-1026, V974A); assay: as above; conditions: protein: recombinant; tags: 6xHis (C- or N-terminal); label: Alexa Fluor 488 and Alexa Fluor 647 (labeled PCR primers); blunt
T5 sequence: T2 sequence with V974A

Molecule: CGAGCCAGGCCTGAGAATCCGGTGCCGAGGCCGCTCAATTGGTCGTAGACAGCTCTAGCACCGCTTAAACGCACGTACGCGCTGTCCCCCGCGTTTTAACCGCCAAGGGGATTACTCCCTAGTCTCCAGGCACGTGTCAGATATATACATCCAGGCCTTGTGTCG (double strand) [165 bp 601 nucleosome (7N11)]
- Kd [3]: 114 nM
- Kd ([4]; phosphorylated): 213 nM
- Kd ([5]; dephosphorylated (CIP)): 71 nM

Molecule: phosphorylated Δ350 SMARCAD1 (from UniProt Q9H4L7 351-1026) (domain or fragment)
- Kd [1]: 495 nM
- ATP hydrolysis rate with nucleosome as activator (1 μM SMARCAD1, 1 μM nucleosome; NADH-coupled assay) [2]: 118 nM/s

Molecule: CGAGCCAGGCCTGAGAATCCGGTGCCGAGGCCGCTCAATTGGTCGTAGACAGCTCTAGCACCGCTTAAACGCACGTACGCGCTGTCCCCCGCGTTTTAACCGCCAAGGGGATTACTCCCTAGTCTCCAGGCACGTGTCAGATATATACATCCAGGCCTTGTGTCG (double strand) [165 bp 601 DNA]
- Kd [4]: 49 nM
- Kd [5]: 28 nM

B1: 165 bp 601 DNA (dsDNA)
DNA 1: CGAGCCAGGCCTGAGAATCCGGTGCCGAGGCCGCTCAATTGGTCGTAGACAGCTCTAGCACCGCTTAAACGCACGTACGCGCTGTCCCCCGCGTTTTAACCGCCAAGGGGATTACTCCCTAGTCTCCAGGCACGTGTCAGATATATACATCCAGGCCTTGTGTCG
DNA 2: CGACACAAGGCCTGGATGTATATATCTGACACGTGCCTGGAGACTAGGGAGTAATCCCCTTGGCGGTTAAAACGCGGGGGACAGCGCGTACGTGCGTTTAAGCGGTGCTAGAGCTGTCTACGACCAATTGAGCGGCCTCGGCACCGGATTCTCAGGCCTGGCTCG
- Kd [7]: 60 ± 18 nM
- Kd [8]: 26 ± 9 nM

Other lines, results leading:

- Kd [1]: 151 nM
- ATP hydrolysis rate with nucleosome as activator (1 μM SMARCAD1, 1 μM nucleosome; NADH-coupled assay) [2]: 30 nM/s
Molecule: phosphorylated wild type SMARCAD1 (from UniProt Q9H4L7 1-1026) (enzyme)

- Kd [6]: 114 nM
Molecule: dephosphorylated Δ350 SMARCAD1 (from UniProt Q9H4L7 351-1026) (domain or fragment)
